Source: the supplement of paper PMC9112550, “Optimization of the antimicrobial peptide Bac7 by deep mutational scanning” (BMC Biology, 2022)

System: Escherichia coli TOP10
Assay: shrunken log2 fold change of peptide-encoding DNA abundance (4.5 h post-induction vs induction); higher = less antimicrobial activity (less host growth inhibition)
Conditions: time post-induction: 4.5 h; library: site-saturation at positions 5, 18, 19, 20
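Further: peptides expressed intracellularly from a pBAD plasmid library in pooled LB shake-flask culture, induced with 0.3% L-arabinose, DNA abundance read by NGS, three biological replicates, DESeq2 with apeglm shrinkage.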

Sequence	shrunken log2 fold change
RRIRMRPPRLPRPRPRPYTVPRP	0.0221
RRIRCRPPRLPRPRPRPYAAPRP	-0.269
RRIRGRPPRLPRPRPRPERSPRP	1.36
RRIRDRPPRLPRPRPRPRCNPRP	-0.0439
RRIRPRPPRLPRPRPRPHRFPRP	0.645
RRIRNRPPRLPRPRPRPGFWPRP	0.0198
RRIRQRPPRLPRPRPRPPAFPRP	0.379
RRIRKRPPRLPRPRPRPQYSPRP	-0.906
RRIRYRPPRLPRPRPRPYWAPRP	-1.11
RRIRQRPPRLPRPRPRPTDAPRP	0.0862
RRIRMRPPRLPRPRPRPYFRPRP	-0.575
RRIRPRPPRLPRPRPRPLYTPRP	-0.37
RRIRPRPPRLPRPRPRPKANPRP	0.0243
RRIRSRPPRLPRPRPRPRKSPRP	0.139
RRIRYRPPRLPRPRPRPVVYPRP	0.0874
RRIRYRPPRLPRPRPRPHNIPRP	-0.238
RRIRERPPRLPRPRPRPVAMPRP	-0.00351
RRIRYRPPRLPRPRPRPVKVPRP	0.0182
RRIRKRPPRLPRPRPRPHRHPRP	0.023
RRIRVRPPRLPRPRPRPYFFPRP	-0.512
RRIRQRPPRLPRPRPRPGYWPRP	-0.116
RRIRMRPPRLPRPRPRPVNIPRP	-0.361
RRIRVRPPRLPRPRPRPEPNPRP	0.19
RRIRSRPPRLPRPRPRPQNLPRP	-0.394
RRIRWRPPRLPRPRPRPADHPRP	0.193

Sequence	shrunken log2 fold change
RRIRARPPRLPRPRPRPIMLPRP	-0.43
RRIRFRPPRLPRPRPRPRVRPRP	0.0771
RRIRWRPPRLPRPRPRPCVPPRP	-0.035
RRIRNRPPRLPRPRPRPSKYPRP	-0.532
RRIRRRPPRLPRPRPRPPQFPRP	0.864
RRIRERPPRLPRPRPRPSCMPRP	-0.416
RRIRFRPPRLPRPRPRPLNCPRP	-0.125
RRIRYRPPRLPRPRPRPYRSPRP	0.0135
RRIRSRPPRLPRPRPRPPCSPRP	0.198
RRIRPRPPRLPRPRPRPNFKPRP	-0.225
RRIRFRPPRLPRPRPRPYFVPRP	-0.59
RRIRHRPPRLPRPRPRPCMTPRP	0.0183
RRIRDRPPRLPRPRPRPLYTPRP	-0.181
RRIRGRPPRLPRPRPRPNRLPRP	0.104
RRIRVRPPRLPRPRPRPDSKPRP	-0.34
RRIRLRPPRLPRPRPRPNKPPRP	-0.0372
RRIRGRPPRLPRPRPRPWNRPRP	-0.0647
RRIRRRPPRLPRPRPRPMHMPRP	0.121
RRIRCRPPRLPRPRPRPRGLPRP	0.331
RRIRFRPPRLPRPRPRPCVPPRP	-0.835
RRIRHRPPRLPRPRPRPHNGPRP	-0.362
RRIRARPPRLPRPRPRPMPPPRP	0.3
RRIRCRPPRLPRPRPRPVFFPRP	-0.0521
RRIRDRPPRLPRPRPRPQIDPRP	-0.0493
RRIRARPPRLPRPRPRPPKNPRP	0.562

Sequence	shrunken log2 fold change
RRIRVRPPRLPRPRPRPMASPRP	-0.01
RRIRDRPPRLPRPRPRPDLEPRP	0.0526
RRIRCRPPRLPRPRPRPRFKPRP	-0.00257
RRIRRRPPRLPRPRPRPQPEPRP	0.0541
RRIRERPPRLPRPRPRPGQKPRP	0.2
RRIRKRPPRLPRPRPRPPNKPRP	0.289
RRIRNRPPRLPRPRPRPGELPRP	-0.0397
RRIRDRPPRLPRPRPRPKTHPRP	0.0785
RRIRGRPPRLPRPRPRPKAKPRP	0.017
RRIRVRPPRLPRPRPRPMDIPRP	-0.308
RRIRGRPPRLPRPRPRPHLQPRP	0.479
RRIRSRPPRLPRPRPRPYFSPRP	-0.611
RRIRARPPRLPRPRPRPWGYPRP	-0.317
RRIRMRPPRLPRPRPRPVGEPRP	0.141
RRIRVRPPRLPRPRPRPNKSPRP	-0.348
RRIRRRPPRLPRPRPRPVCTPRP	0.575
RRIRDRPPRLPRPRPRPPYIPRP	-0.346
RRIRDRPPRLPRPRPRPQCSPRP	0.0391
RRIRKRPPRLPRPRPRPDWGPRP	2.83
RRIRERPPRLPRPRPRPSCTPRP	-0.815
RRIRKRPPRLPRPRPRPHDLPRP	0.00698
RRIRRRPPRLPRPRPRPPYCPRP	0.256
RRIRHRPPRLPRPRPRPPHIPRP	-0.287
RRIRWRPPRLPRPRPRPSNMPRP	-0.923
RRIRQRPPRLPRPRPRPVFLPRP	-0.218

Sequence	shrunken log2 fold change
RRIRMRPPRLPRPRPRPVGFPRP	0.405
RRIRYRPPRLPRPRPRPGHKPRP	-0.485
RRIRVRPPRLPRPRPRPNYPPRP	-0.515
RRIRFRPPRLPRPRPRPPWCPRP	0.0236
RRIRDRPPRLPRPRPRPWEVPRP	-0.0135
RRIRARPPRLPRPRPRPDDNPRP	0.248
RRIRVRPPRLPRPRPRPTCEPRP	0.243
RRIRVRPPRLPRPRPRPNKDPRP	-0.448
RRIRARPPRLPRPRPRPMHLPRP	-0.00822
RRIRRRPPRLPRPRPRPNCQPRP	0.0764
RRIRDRPPRLPRPRPRPFYKPRP	-0.421
RRIRLRPPRLPRPRPRPHNDPRP	-0.452
RRIRRRPPRLPRPRPRPVQDPRP	0.252
RRIRTRPPRLPRPRPRPEIYPRP	-0.329
RRIRHRPPRLPRPRPRPLQDPRP	-0.0821
RRIRYRPPRLPRPRPRPHDDPRP	0.0514
RRIRWRPPRLPRPRPRPDNGPRP	0.0563
RRIRHRPPRLPRPRPRPYCRPRP	-0.0455
RRIRARPPRLPRPRPRPNFSPRP	-0.0677
RRIRRRPPRLPRPRPRPIAWPRP	0.0624
RRIRVRPPRLPRPRPRPSPFPRP	-0.442
RRIRWRPPRLPRPRPRPGYDPRP	-0.0098
RRIRHRPPRLPRPRPRPMYVPRP	0.0136
RRIRGRPPRLPRPRPRPTYNPRP	0.0375
RRIRRRPPRLPRPRPRPMWFPRP	-0.0232

Sequence	shrunken log2 fold change
RRIRIRPPRLPRPRPRPKFKPRP	-0.0251
RRIRKRPPRLPRPRPRPECLPRP	0.182
RRIRNRPPRLPRPRPRPEDCPRP	-0.00844
RRIRGRPPRLPRPRPRPVVIPRP	-0.253
RRIRGRPPRLPRPRPRPRSLPRP	0.778
RRIRARPPRLPRPRPRPDAVPRP	0.683
RRIRMRPPRLPRPRPRPIDFPRP	-0.00165
RRIRFRPPRLPRPRPRPSVKPRP	-0.347
RRIRFRPPRLPRPRPRPCMEPRP	-0.105
RRIRWRPPRLPRPRPRPCRPPRP	0.115
RRIRDRPPRLPRPRPRPLTVPRP	-0.102
RRIRWRPPRLPRPRPRPVLCPRP	0.341
RRIRWRPPRLPRPRPRPSKDPRP	-0.412
RRIRVRPPRLPRPRPRPYKNPRP	-0.848
RRIRTRPPRLPRPRPRPQPWPRP	0.314
RRIRYRPPRLPRPRPRPQEIPRP	-0.507
RRIRGRPPRLPRPRPRPWHSPRP	0.0143
RRIRNRPPRLPRPRPRPMGNPRP	-0.0658
RRIRPRPPRLPRPRPRPPSHPRP	0.0789
RRIRYRPPRLPRPRPRPKLYPRP	-0.65
RRIRPRPPRLPRPRPRPLKCPRP	-0.131
RRIRGRPPRLPRPRPRPIWPPRP	0.23
RRIRVRPPRLPRPRPRPSFPPRP	-0.627
RRIRSRPPRLPRPRPRPLDSPRP	-0.0139
RRIRGRPPRLPRPRPRPWTKPRP	0.0647

Sequence	shrunken log2 fold change
RRIRYRPPRLPRPRPRPSCVPRP	-0.497
RRIRCRPPRLPRPRPRPLKMPRP	-0.365
RRIRKRPPRLPRPRPRPRRCPRP	0.444
RRIRCRPPRLPRPRPRPMCKPRP	-0.109
RRIRNRPPRLPRPRPRPKCLPRP	0.0771
RRIRMRPPRLPRPRPRPFMSPRP	0.0642
RRIRVRPPRLPRPRPRPMNMPRP	-0.426
RRIRHRPPRLPRPRPRPGTAPRP	-0.275
RRIRKRPPRLPRPRPRPVQPPRP	0.0838
RRIRKRPPRLPRPRPRPHYDPRP	0.0324
RRIRQRPPRLPRPRPRPYTQPRP	-0.25
RRIRIRPPRLPRPRPRPIGSPRP	-0.0175
RRIRFRPPRLPRPRPRPDFDPRP	-0.15
RRIRLRPPRLPRPRPRPMLFPRP	-0.136
RRIRWRPPRLPRPRPRPEQKPRP	0.0146
RRIRDRPPRLPRPRPRPYAFPRP	-0.187
RRIRIRPPRLPRPRPRPWTTPRP	-0.102
RRIRTRPPRLPRPRPRPLRFPRP	0.742
RRIRRRPPRLPRPRPRPPTGPRP	0.625
RRIRDRPPRLPRPRPRPKFCPRP	-0.0512
RRIRNRPPRLPRPRPRPVDYPRP	-0.0368
RRIRERPPRLPRPRPRPSLNPRP	-0.181
RRIRPRPPRLPRPRPRPKMTPRP	0.0519
RRIRRRPPRLPRPRPRPSSLPRP	-0.134
RRIRHRPPRLPRPRPRPQNPPRP	-0.0256
